Source: publication PMC9080447 (Biochemistry, 2021)

Experiments:
Assay in all cases: native MS
[1] = target: His6-tagged Salmonella FrlB E224Q/H240N (Salmonella)
[2] = target: wild-type Salmonella FrlB deglycase (Salmonella)
native MS = target: the molecule itself

His6-tagged Salmonella FrlB E224Q/H240N (enzyme)
stoichiometry N [1]: 2

wild-type Salmonella FrlB deglycase (enzyme)
stoichiometry N [2]: 2

B1: His6-tagged Salmonella YidA (enzyme, UniProt A0A0F6B8Z9 1-281, looked up)
chain: MAIKLIAIDMDGTLLLPDHTISPAVKNAIAAAREKGVNVVLTTGRPYAGVHSYLKELHMEQPGDYCITYNGALVQKAGDGSTVAQTALSYDDYRYLEKLSREVGSHFHALDRNTLYTANRDISYYTVHESYVATIPLVFCEAEKMDPNTQFLKVMMIDEPAVLDRAIARIPAEVKEKYTVLKSAPYFLEILDKRVNKGTGVKSLVEALGIKPEEVMAIGDQENDIAMIEYAGMGVAMDNAIPSVKEVANFVTKSNLEDGVAWAIEKFVLNPDHSSGHFPAR
stoichiometry N (native MS): 2
